Results as given in the supplement of paper PMC9170038.

What was measured:
[1] = test system: MS2 coat protein; assay: apparent KD of MS2 coat protein, switch OFF state (with FMN for OFF switches, without FMN for ON switches); designed switch direction (-1 OFF switch, 1 ON switch): 1; higher = weaker reporter binding; conditions: FMN input: 0 or 200 uM; Eterna round: R93 (includes R88 designs)
Procedure, shortened: (§1)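 Designed RNA switches were transcribed on-chip from Illumina sequencing clusters and titrated with SNAP-549-labelled MS2 coat protein in twofold steps from 0.7 or 1.5 nM up to 3 µM. Each step lasted 0.8–1.5 h at first and 10–20 min by the end, in 100 mM Tris-HCl pH 7.5, 80 mM KCl and 4 mM MgCl2, without or with constant ligand. Apparent KD is the median, for each design, of fits to normalised cluster binding curves.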

[2] = test system: MS2 coat protein; assay: apparent KD of MS2 coat protein, switch ON state; designed switch direction (-1 OFF switch, 1 ON switch): 1; higher = weaker reporter binding; conditions: FMN input: 0 or 200 uM; Eterna round: R93 (includes R88 designs)
Procedure, shortened: as §1

Row | Sequence | apparent KD of MS2 coat protein [1] [nM] | apparent KD of MS2 coat protein [2] [nM]
1 | AAUUCCACUAGCAAGGAUAUCUAAAACGAAACAUGAGGAUCACCCAUGUGACGACCACACGUAUCAGAGAAGGUGCAGGGUGAAU [JR_SS002_Sub307] | 31.9 | 20.5
2 | AGAAAACAUGAGGAUCACCCAUGUAGAAAUAUGGGAGGAUAUACAAAGACGAAAGUCAAAGUAGAAGGCCUGAAGA [Mat - Same State 1 - JL mod - D92] | 75 | 20.4
3 | AGAAAACAUGAGGAUCACCCAUGUAGGAAUAUGGGAGGAUAUACAAAGACGAAAGUCAGAGUAGAAGGCCUAAAAA [salish99-SS1-086] | 92.3 | 17.5
4 | AGAAAAGAAAGUAAGGAUAUGCAUAAUAAAACAUGAGGAUCACCCAUGUUAAAAAAAAGAUCAUGGUAGAAGGUACAAAAGAAAG [SS2 M 36] | 12.3 | 17
5 | AGAAAUAAAAGACAGGAUAUCCAAAAGAAAACAUGAGGAUCACCCAUGUAAAGAAAAUAAAAAUGGGAGAAGGGUCAAAUAAAAA [Mat - Same State 2 - JL mod - D49] | 33.9 | 34.4
6 | AGAAAUAAAAGAGAGGAUAUCCAAAAGAAAACAUGAGGAUCACCCAUGUAAAAGAAAAUAAAAUGGGAGAAGGCUCACAUAAAGA [Topaz 34] | 37.4 | 21.1
7 | AGAAAUAAAAGAGAGGAUAUUCAAAAGAAAACAUGAGGAUCACCCAUGUAAAAGAAAAUAAAUGGGAAGAAGGCUCAAAAUAAAG [Modifying JL's highscorer - Moving the G segment - Variant 2] | 26.2 | 24.8
8 | AGAAAUAAAAGGGAGGAUAUUCAAAAAGGGACAUGAGGAUCACCCAUGUAAAAGAAAAUAAAAUGGGAGAAGGCUCAAAAUAAAG [80%, More Helter Skelter 2] | 748 | 1130
9 | AGAAAUAAACCUCAGGAUAUGGGUAAAUAAACAUGAGGAUCACCCAUGUAAAAGAAAAUAAAAAACCAGAAGGGAGAAAAUAAGA [Designing denovo 1] | 24.1 | 10.4
10 | AGAAGACAUGAGGAUCACCCAUGUAGGAAUAUGGGAGGAUAUACAAAGACGAAAGUCAGAGUAGAAGGCCUAGGAA [salish99-SS1-090] | 53 | 18.5
11 | AGAUCUAGAAGGUAGGAUAUGUGAAAAAAUACAUGAGGAUCACCCAUGUGAUGAAUAAAAAGAAAAUAGAAGGACCAUCUAGAUC [Cross swing 2] | 40.7 | 16.5
12 | AGGAAACAUGAGGAUCACCCAUGUAAAAAUAUGGGAGGAUAUACGAAAAAAAAAAAAAAAGUAGAAGGCCUAAAAG [Garnet 10] | 231 | 101
13 | AUAAAACAUGAGGAUCACCCAUGUAGAAAUAUGGGAGGAUAUACUAGAUCGAAAGAUCUAGUAGAAGGCCUCAAAG [JL Mod of Eli 2] | 58.9 | 58.8
14 | AUAAAACAUGAGGAUCACCCAUGUAGACAUAUGGGAGGAUAUACUAGAUCGAAAGAUCUAGUAGAAGGUCUUAAAA [JL Mod of Eli 10] | 183 | 205
15 | AUAAAACAUGAGGAUCACCCAUGUCAAGAGUAUUAAGGAUAUGAGCCAGGGAACUGGCGAUCAGAAGGUGAGACUC [Atxerexebe] | 46.7 | 160
16 | AUAAAACAUGAGGAUCACCCAUGUCCGACAAAUCAAGGAUAUGAGAGCAAAACCAGGCUGUUAGAAGGUGAAAGAA [Atlausa] | 154 | 154
17 | AUAAGAAAAACACAGGAUAUCCAAAAGAAAACAUGAGGAUCACCCAUGUAAAGAAAAUAAAAAUGGGAGAAGGGUGAAAAUAAUA [Mat - Same State 2 - JL mod - D32] | 62.2 | 28.1
18 | AUAAGACAUGAGGAUCACCCAUGUAUAAGAGCAUGAGGAUAUAUGAAAAGUAAUAGGAGGAUAGAAGGCAUGGUUG [JR_SS001_Sub1219] | 102 | 89.7
